In data set [1] the target is CST complex (CTC1-STN1-TEN1) (Homo sapiens) (UniProt Q2NKJ3+Q9H668+Q86WV5). Kind of data set: smFRET. Conditions: smFRET: 25 mM Tris-HCl pH 7.5, 0.5 mM EDTA, 10% glycerol, 50 or 150 mM KCl (temperature not stated), pull-down: 35 mM Tris-HCl pH 7.5, 10% glycerol, 0.01% ….
The target of data set [2] is RPA complex (Homo sapiens) (UniProt P27694+P15927+P35244). Kind of data set: smFRET. The conditions noted are these: smFRET: 25 mM Tris-HCl pH 7.5, 0.5 mM EDTA, 10% glycerol, 50 or 150 mM KCl (temperature not stated), pull-down: 35 mM Tris-HCl pH 7.5, 10% glycerol, 0.01% ….
Sequence of RPA complex (Homo sapiens) (P27694 whole entry, chain 1 of 3): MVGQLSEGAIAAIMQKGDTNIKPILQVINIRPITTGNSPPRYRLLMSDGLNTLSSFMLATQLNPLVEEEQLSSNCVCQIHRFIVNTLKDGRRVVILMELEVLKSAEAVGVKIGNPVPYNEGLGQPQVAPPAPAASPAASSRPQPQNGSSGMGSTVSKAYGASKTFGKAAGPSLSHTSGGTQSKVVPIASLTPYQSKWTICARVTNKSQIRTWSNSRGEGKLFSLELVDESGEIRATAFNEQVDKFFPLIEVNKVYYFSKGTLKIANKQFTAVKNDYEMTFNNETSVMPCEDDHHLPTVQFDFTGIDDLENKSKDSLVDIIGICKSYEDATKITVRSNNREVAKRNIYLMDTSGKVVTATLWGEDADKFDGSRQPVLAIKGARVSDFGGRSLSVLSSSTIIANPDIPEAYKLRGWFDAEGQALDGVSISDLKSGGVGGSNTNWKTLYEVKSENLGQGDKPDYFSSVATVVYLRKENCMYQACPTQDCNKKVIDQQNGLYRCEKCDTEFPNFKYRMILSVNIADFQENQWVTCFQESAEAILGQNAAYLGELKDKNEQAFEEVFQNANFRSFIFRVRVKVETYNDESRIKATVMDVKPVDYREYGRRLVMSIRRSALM
Sequence of RPA complex (Homo sapiens) (P15927 whole entry, chain 2 of 3): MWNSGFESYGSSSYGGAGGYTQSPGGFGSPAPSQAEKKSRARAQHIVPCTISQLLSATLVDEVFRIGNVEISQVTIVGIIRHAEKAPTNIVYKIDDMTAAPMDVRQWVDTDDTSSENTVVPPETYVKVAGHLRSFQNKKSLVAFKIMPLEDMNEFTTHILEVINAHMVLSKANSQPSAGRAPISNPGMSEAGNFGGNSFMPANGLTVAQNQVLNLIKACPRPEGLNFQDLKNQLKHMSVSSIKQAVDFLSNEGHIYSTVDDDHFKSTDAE
Sequence of RPA complex (Homo sapiens) (P35244 whole entry, chain 3 of 3): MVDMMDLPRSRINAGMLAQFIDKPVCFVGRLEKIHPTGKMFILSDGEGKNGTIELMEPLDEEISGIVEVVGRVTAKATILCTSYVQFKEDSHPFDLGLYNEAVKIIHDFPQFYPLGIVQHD

Sequence of CST complex (CTC1-STN1-TEN1) (Homo sapiens) (Q2NKJ3 whole entry, chain 1 of 3): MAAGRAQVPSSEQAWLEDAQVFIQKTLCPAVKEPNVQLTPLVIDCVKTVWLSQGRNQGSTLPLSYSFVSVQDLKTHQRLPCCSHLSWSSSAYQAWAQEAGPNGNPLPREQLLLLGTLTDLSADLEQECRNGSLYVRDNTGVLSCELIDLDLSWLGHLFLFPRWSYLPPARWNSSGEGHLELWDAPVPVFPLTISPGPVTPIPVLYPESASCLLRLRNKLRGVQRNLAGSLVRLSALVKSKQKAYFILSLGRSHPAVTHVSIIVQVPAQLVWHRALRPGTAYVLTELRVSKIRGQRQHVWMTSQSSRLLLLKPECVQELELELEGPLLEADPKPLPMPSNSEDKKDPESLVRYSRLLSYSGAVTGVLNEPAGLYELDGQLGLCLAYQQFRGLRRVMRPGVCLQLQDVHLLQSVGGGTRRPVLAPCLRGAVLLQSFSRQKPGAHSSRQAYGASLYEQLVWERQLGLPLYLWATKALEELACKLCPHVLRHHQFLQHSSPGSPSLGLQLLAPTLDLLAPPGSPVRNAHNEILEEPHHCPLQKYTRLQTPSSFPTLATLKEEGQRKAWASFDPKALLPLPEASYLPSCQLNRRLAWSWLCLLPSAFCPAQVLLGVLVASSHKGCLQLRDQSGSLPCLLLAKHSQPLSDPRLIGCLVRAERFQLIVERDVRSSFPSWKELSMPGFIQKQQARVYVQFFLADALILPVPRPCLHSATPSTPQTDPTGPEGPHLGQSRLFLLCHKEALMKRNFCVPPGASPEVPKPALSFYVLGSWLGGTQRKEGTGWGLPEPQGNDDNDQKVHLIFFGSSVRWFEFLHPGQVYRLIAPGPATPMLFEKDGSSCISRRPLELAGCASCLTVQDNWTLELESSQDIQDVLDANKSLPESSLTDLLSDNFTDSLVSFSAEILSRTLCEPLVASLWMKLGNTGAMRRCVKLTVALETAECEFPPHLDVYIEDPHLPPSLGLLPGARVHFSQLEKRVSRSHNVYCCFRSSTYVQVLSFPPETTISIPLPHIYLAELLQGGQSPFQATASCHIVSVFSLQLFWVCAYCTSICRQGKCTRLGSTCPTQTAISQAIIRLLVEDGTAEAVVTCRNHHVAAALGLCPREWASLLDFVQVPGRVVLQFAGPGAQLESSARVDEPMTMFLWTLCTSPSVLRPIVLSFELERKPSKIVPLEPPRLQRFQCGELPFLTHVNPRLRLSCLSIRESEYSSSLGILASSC
Sequence of CST complex (CTC1-STN1-TEN1) (Homo sapiens) (Q9H668 whole entry, chain 2 of 3): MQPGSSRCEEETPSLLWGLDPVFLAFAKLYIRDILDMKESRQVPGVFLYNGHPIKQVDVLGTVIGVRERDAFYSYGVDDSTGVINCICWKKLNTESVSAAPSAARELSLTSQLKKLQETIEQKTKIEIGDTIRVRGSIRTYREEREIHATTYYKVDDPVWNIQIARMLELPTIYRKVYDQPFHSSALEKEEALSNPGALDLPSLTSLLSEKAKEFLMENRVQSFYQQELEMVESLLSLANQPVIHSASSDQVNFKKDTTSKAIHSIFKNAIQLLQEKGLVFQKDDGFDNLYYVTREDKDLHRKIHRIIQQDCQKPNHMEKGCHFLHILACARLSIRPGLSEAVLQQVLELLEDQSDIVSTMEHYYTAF
Sequence of CST complex (CTC1-STN1-TEN1) (Homo sapiens) (Q86WV5 whole entry, chain 3 of 3): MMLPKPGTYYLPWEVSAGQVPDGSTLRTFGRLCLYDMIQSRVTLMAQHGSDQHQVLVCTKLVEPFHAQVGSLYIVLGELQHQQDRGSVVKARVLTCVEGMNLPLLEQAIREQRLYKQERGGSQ

Broadly, the Kd is the constant that tells how readily two partners part at equilibrium. In the case of “ACGCTGCCGAATTCTACCAGTGCCTTGCTAGGACATCTTTGCCCACCTGCAGGTTCACCC / GGGTGAACCTGCAGGTGGGCAAAGA [35-nt ssDNA overhang (Oligo 5+6)]”, the equilibrium dissociation constant (Kd) came out at 0.12 nM in data set [1] (50 mM KCl, Hill slope 2.74); 0.29 nM in data set [1] (150 mM KCl, Hill slope 1.4); 0.12 nM in data set [2] (50 mM KCl, Hill slope 3.14); 0.11 nM in data set [2] (150 mM KCl, Hill slope 2.83).
